# ± gives the half width of the 95% confidence interval.
# Experiments:
# [1] = folding stability dG unfold from trypsin proteolysis; higher = more stable
# Protocol: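 Folding stability of de novo designed mini-proteins (<80 aa, no Cys; designed by TrROS, TrMRF, ProteinMPNN and the joint model) was measured by cDNA display proteolysis with trypsin and chymotrypsin. Each protease was used at 11 concentrations in a threefold dilution series plus a no-protease condition. K50 was inferred by Bayesian fitting of sequencing counts, and dG unfold was derived against a sequence-predicted unfolded-state K50 (Tsuboyama et al. method). Sequences shown include variable-length N-terminal GS-type padding (SAGGSAGG...) inside a display construct carrying a PA tag. Rows were kept only if the AF2 dimer inter-PAE was >15, to exclude likely homo-oligomers.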
# [2] = folding stability dG unfold (combined trypsin and chymotrypsin); higher = more stable
# Summary of the method: (§1)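 How resistant each design was to proteolysis was captured as K50, inferred by Bayesian fitting of sequencing counts. Unfolding free energy was then derived relative to a sequence-predicted unfolded-state K50 and a shared folded-state K50, per protease or combined. Digestion used trypsin and chymotrypsin at 11 threefold-diluted concentrations plus a no-protease condition, on mini-proteins under 80 residues without cysteine in a PA-tagged cDNA display construct. Designs were kept only when AlphaFold2 dimer inter-PAE was above 15.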
# [3] = folding stability dG unfold from chymotrypsin proteolysis; higher = more stable
# Summary of the method: as §1
Sequence,folding stability dG unfold [1] [kcal/mol],folding stability dG unfold [2] [kcal/mol],folding stability dG unfold [3] [kcal/mol]
SAGGSAGGSSPPVVTVEKYSEEPSPGVLRAVIRHPDGKEIVVTFEDLSPEEAKARAEEVAKLGSAGGSAGGS [r20_181_JUSTAS],0.00637 ± 0.068,< -1,–
SAGGSAGGSAGREEVEEAIRAGETVTLEEKSPEGVIPVITVRAEFPDPDKVLVETEVKPLSAGGSAGGSAGG [r11_710_JUSTAS],0.455 ± 0.083,-0.646 ± 0.32,–
SIERPGGEPVTLTVTVERPPGVRTTRTFTTPASELEARRGRDVTDEEIIAAVKEELAAAGDRALAVTVDRTS [r1_338_JUSTAS],-0.807 ± 0.68,< -1,–
SAGSMTVSESTENGVRTTTVTLPSRPLTVTVTFPDGKVTATTTDPAAPEAATTTPLGTPAVETLIAELSSAG [r14_716_JUSTAS],0.083 ± 0.051,-0.609 ± 0.3,–
SAGGSAGGSAGGSMTRVFVRKPDYWLEVEEYPDPKNPDRIRLTVKKKIPLSEVTPEELASAGGSAGGSAGGS [r4_316_JUSTAS],-0.0403 ± 0.26,–,–
SAGGSAGGSPRYQIPFEFPNGRNLYIQIERDPEEGQVKVDIMFPDGGTKEITVPPGEEIKIPWSAGGSAGGS [r12_922_TrROS],-0.659 ± 0.62,–,–
SAGGSAGGSAGGGPMIYTEETVEEVVKVGEKSIKRTVTTTKVEVPGKPGVVLETKVDWGGSAGGSAGGSAGG [r7_795_JUSTAS],–,0.312 ± 0.092,0.837 ± 0.024
SAGGSAGGMSLEEAVEEAAAAVSPDETAEVVLTVEVSEPLTFPEPPDRLVTRPRTVRVRVRAPASAGGSAGG [r6_543_JUSTAS],–,0.319 ± 0.19,0.488 ± 0.11
SAGGSAGGSAGGPFFMPEQKGTIPADELQKKGGNLTSVEIKVRPWMMELEIEIVYPPGDKSAGGSAGGSAGG [r7_116_TrROS],–,0.0937 ± 0.51,1.14 ± 0.36
SAGGLTTQETVSLTSPTNVALTVLSTSVTLSPSTRTLSYTVQGPDGTVTTETVVTPAPLPELDPSAGSAGGS [r16_132_JUSTAS],–,-0.159 ± 0.15,0.346 ± 0.15
SAGGSAGGSAGGSGFILKESPDSVLSYDAITGETKKVPSKDVVLEYDPNNGVYTLTVSKSAGGSAGGSAGGS [r4_127_JUSTAS],–,0.168 ± 0.17,0.639 ± 0.12
SAGGMKKITIPMKVLEEKFGIPKNTSPEELAKKLNPKEKVEVLSVTSEKSENGEENPTVTVLVIPPKESAGG [r13_723_TrMRF],–,-0.22 ± 0.15,0.0873 ± 0.14
SAGGSAGGMTIPLPGSVEEIQELLGGPIKEYTEEAPGSGTLTLPNGTPITVERESPELLKEVLRSAGGSAGG [r6_19_JUSTAS],–,-0.593 ± 0.37,-0.0581 ± 0.16
SAGGMKVEDFVLELPTPEGKKILVEAVKVTTDPEAGLISVELKTPDKKEKLTLSPDEYVRGPSPEEFLKSAG [r5_15_JUSTAS],–,-0.562 ± 0.33,-0.376 ± 0.19
SAGGSAGGSAGNADQIKEIARKYAPKNGMKPKDVDIEVEERENPNGKKELHIDVEGEYKNSAGGSAGGSAGG [r11_414_TrROS],–,< -1,0.00121 ± 0.46
SAGGSAGGSMLRVEVTLENGEKIEVEIEVPPGEELTLDEILAELKEKYPDLKVTEIKIEFLEPSAGGSAGGS [r12_262_TrROS_Hall],–,3.27 ± 0.28,2.63 ± 0.22
SAGGSAGGSAGKKFKITEIHPGDNHHHITVKWKRDGKKRERTVMVPSGPEMAKKADIIIISAGGSAGGSAGG [r11_921_TrROS],–,< -1,-0.547 ± 0.48
SAGGSAGGSAGGSDDGSGVRLETFTVTGKGATVTLPDGSTLTVPADQTVTVTRLEVLPKSAGGSAGGSAGGS [r4_26_TrMRF],–,< -1,-0.509 ± 0.23
SAGGSAGGSAGAWTDPDGNPYEVKEATVASLGPENPIVLVRFSENGELRLVPLEQALADLSAGGSAGGSAGG [r17_517_TrMRF],–,-0.0575 ± 0.25,0.558 ± 0.16
SAGGSAGGSPPENMKIKIYNPNGEEQTIPVEGVKIRFNGDTHEIPPGDSIPIPPGIDAIEIEKSAGGSAGGS [r12_779_TrROS],–,0.0926 ± 0.22,0.512 ± 0.084
SAGMLVRIETLPPGAATEEVVPMTPEEAKEYLEAQGYTVSTDPANPTMTFSHPDATVTVTFEPVPADLRSAG [r5_248_JUSTAS],–,0.365 ± 0.15,0.79 ± 0.12
SAGGSAGGWIKLDGKEVYIVIPDGNPEQIAKELKEQFPNGNIKPHPGQNAEEAAKKNKRVIWIPSAGGSAGG [r6_680_TrROS],–,0.284 ± 0.37,0.771 ± 0.16
SAGGSAGGSAWRTIEITWPPSNPEEFIDEISKDFGFTVEGEREPNGYHTIDFQLPPGMKIVSAGGSAGGSAG [r3_457_TrROS],–,-0.224 ± 0.2,-0.137 ± 0.23
SAGGSAGGSAGGNPVYRTRAEILETVPVGEDETVWLPGTAAPVSPSTTVLLARVYSVPADSAGGSAGGSAGG [r11_793_TrMRF],–,< -1,-0.355 ± 0.27

# From the supplement of paper PMC12764529
